Data taken from publication PMC9674614 (Nature Communications, 2022).

Columns and labels:
[1] = target: C-terminal domain of vaccinia virus C16 (vaccinia virus strain Western Reserve (WR)) (UniProt P03296); assay: SEC; C16-C alone
[2] = target: vaccinia virus protein C4, full length, from baculovirus (vaccinia virus strain Western Reserve (WR)); assay: SEC
SEC = target: the molecule itself; assay: SEC
[3] = target: the molecule itself; assay: mass photometry; purified recombinant C16 alone

C-terminal domain of vaccinia virus C16 (from UniProt P03296) (domain or fragment)
stoichiometry N [1]: 2

vaccinia virus protein C4, full length, from baculovirus (natural protein)
stoichiometry N [2]: 2

B1: vaccinia virus (strain Western Reserve) protein C16, full length, from E. coli (natural protein)
chain: MDIYDDKGLQTIKLFNNEFDCIRNDIRELFKHVTDSDSIQLPMEDNSDIIENIRKILYRRLKNVECVDIDSTITFMKYDPNDDNKRTCSNWVPLTNNYMEYCLVIYLETPICGGKIKLYHPTGNIKSDKDIMFAKTLDFKSKKVLTGRKTIAVLDISVSYNRSMTTIHYNDDVDIDIHTDKNGKELCYCYITIDDHYLVDVETIGVIVNRSGKCLLVNNHLGIGIVKDKRISDSFGDVCMDTIFDFSEARELFSLTNDDNRNIAWDTDKLDDDTDIWTPVTEDDYKFLSRLVLYAKSQSDTVFDYYVLTGDTEPPTVFIFKVTRFYFNMPK
notes: also called VACV-C16; FLC16
stoichiometry N (SEC): 2
stoichiometry N [3]: 4
